Test results: the supplement of paper PMC10724198
± gives the standard deviation of the averaged measurements.

Tested on: Saccharomyces cerevisiae
Experiment: protein stability index of tFT-peptide fusion (C-terminal peptide) (PSI (0-1 scale)); higher = more stable (slower turnover)
Details: genetic background: wild type; temperature: 30 C
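Note: PSI is a weighted mean of sequencing reads over stability bins, variants kept only with over 10 reads, mCherry proximal and sfGFP distal, peptide attached via GGGS linker.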

Row | Sequence | protein stability index
1 | PSLPPLPPAPLL | 0.726 ± 0.039
2 | VCVGCAACIVGV | 0.636 ± 0.026
3 | VYQLTKNERVIK | 0.643 ± 0.1
4 | ASLEASFYVVPC | 0.641 ± 0.014
5 | AISPLLPSFSPP | 0.665 ± 0.037
6 | VGGIVGGFCRGR | 0.701 ± 0.069
7 | KNNKEKQKKKKR | 0.663 ± 0.084
8 | QQCVTGKSFYGI | 0.856 ± 0.14
9 | SAPPLPLSPPPS | 0.739 ± 0.076
10 | SPVFSDFLLSLC | 0.642 ± 0.028
11 | ILDRRTKREDLK | 0.667 ± 0.038
12 | SFPPLCLSFPVF | 0.65 ± 0.02
13 | GGHRRQGKKFTP | 0.711 ± 0.067
14 | LSGTLALVVFTR | 0.6464 ± 0.001
15 | GCVGIGFSPGGG | 0.656 ± 0.014
16 | GVGVWQWERGRG | 0.789 ± 0.1
17 | PPSRPPPARREP | 0.7 ± 0.022
18 | GCIELTGHLGSF | 0.7059 ± 0.0036
19 | GSHRSTWGLVPL | 0.696 ± 0.067
20 | NGSAYEGRDYAN | 0.626 ± 0.02
21 | PPTPPTARPIVL | 0.677 ± 0.018
22 | AGMIRKGQYRGG | 0.68 ± 0.054
23 | EGDGQGWGGQGG | 0.702 ± 0.03
24 | RGPFSGKCEPSM | 0.663 ± 0.049
25 | GGRVARRGAERG | 0.654 ± 0.14

Row | Sequence | protein stability index
26 | RARPGRACPGAP | 0.755 ± 0.0097
27 | SNWLMTYIIRRK | 0.641 ± 0.012
28 | LSSRVYDCTRQG | 0.675 ± 0.045
29 | RNNRQAREKKKQ | 0.701 ± 0.15
30 | LSLGVYMGVGRG | 0.629 ± 0.0074
31 | AVWRVSGPFTDA | 0.685 ± 0.071
32 | ILSSPGLLLFRL | 0.5449 ± 0.005
33 | VQGIKFRNSVEV | 0.665 ± 0.044
34 | GSSRMACYCKHS | 0.644 ± 0.051
35 | SPPPFLLPRLFS | 0.639 ± 0.096
36 | AHDRLPSTRLVC | 0.581 ± 0.086
37 | PGSPPGLERLGR | 0.694 ± 0.059
38 | ALDACLYLSSGL | 0.637 ± 0.0097
39 | TKIENYKRKRAK | 0.708 ± 0.1
40 | PSPPPPPRTFPN | 0.6756 ± 0.0064
41 | GGGVGMLRRSGG | 0.689 ± 0.054
42 | TVSRNKKKKQIQ | 0.613 ± 0.038
43 | PSPPPPPPHPAP | 0.694 ± 0.035
44 | RGRGKRNDPEKR | 0.681 ± 0.036
45 | FCGGSWTDGFGW | 0.737 ± 0.028
46 | APAAPLPVVSPD | 0.752 ± 0.073
47 | LFSRDASSFRFF | 0.658 ± 0.032
48 | LPAPLGPRIPSL | 0.753 ± 0.15
49 | PPGLPLSPCPPP | 0.685 ± 0.061
50 | RKPTSFFSRIVN | 0.611 ± 0.026
